# T1: HSV UL42 (processivity factor of HSV DNA polymerase) (herpes simplex virus (HSV), UniProt P10226 1-488)
# T1 sequence: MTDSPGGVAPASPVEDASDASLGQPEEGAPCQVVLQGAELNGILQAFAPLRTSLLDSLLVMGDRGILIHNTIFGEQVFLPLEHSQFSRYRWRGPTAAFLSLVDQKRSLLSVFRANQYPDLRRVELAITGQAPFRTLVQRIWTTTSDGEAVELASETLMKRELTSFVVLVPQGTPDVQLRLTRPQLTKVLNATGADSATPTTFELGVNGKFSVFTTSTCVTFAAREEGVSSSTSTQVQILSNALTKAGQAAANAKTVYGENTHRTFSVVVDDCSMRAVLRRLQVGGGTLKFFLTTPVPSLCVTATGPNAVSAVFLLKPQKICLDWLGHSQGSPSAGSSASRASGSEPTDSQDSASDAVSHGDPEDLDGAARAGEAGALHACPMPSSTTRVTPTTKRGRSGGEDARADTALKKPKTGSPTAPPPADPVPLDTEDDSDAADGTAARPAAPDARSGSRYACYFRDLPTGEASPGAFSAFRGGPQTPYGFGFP
# Columns and labels:
# [1] = target: T1, HSV UL42 (processivity factor of HSV …); assay: cell-based or functional assay
# [2] = target: T1, HSV UL42 (processivity factor of HSV …); assay: cell-based or functional assay; remark: listed apart in the source
Binder,inhibition of long-chain DNA synthesis at 100 µM [1] [% inhibition at 100 µM],"IC50, inhibition of long chain DNA synthesis [2] [µM]",IC50 relative to that of peptide E [1] [fold]
ATAEETRRMLHAAFDTLA [peptide E mutant R30A],< 20,> 100,
ATAEETRRMLARAFDTLA [peptide E mutant H29A],< 20,> 100,
ATAEETARMLHRAFDTLA [peptide E mutant R25A],,40,3 to 7
"DDVAARLRAAGFGAVGAGATAEETRRMLHRAFDTLA [Peptide A (C-terminal 36 amino acid residues of HSV DNA polymerase, Pol residues 1200-1235)]",,1.7,
ATAEETRRMLHRAFDTAA [peptide E mutant L35A],50,97,
ATAAETRRMLHRAFDTLA [peptide E mutant E22A],< 20,> 100,
ATAEETRAMLHRAFDTLA [peptide E mutant R26A],,14,
ATAEETRRMLHRAFATLA [peptide E mutant D33A],,50,
ATAEEARRMLHRAFDTLA [peptide E mutant T24A],,77,3 to 7
ATAEETRRMLHRAFDALA [peptide E mutant T34A],,10,
"ATAEETRRMLHRAFDTLA [Peptide E (last 18 residues of HSV DNA polymerase, Pol residues 1218-1235)]",,11,
ATAEETRRMAHRAFDTLA [peptide E mutant L28A],,18,
ATAEATRRMLHRAFDTLA [peptide E mutant E23A],,21,
ATAEETRRMLHRAADTLA [peptide E mutant F32A],< 20,> 100,
ATAEETRRALHRAFDTLA [peptide E mutant M27A],40,> 100,
AAAEETRRMLHRAFDTLA [peptide E mutant T20A],< 20,> 100,

# — patent US20070055459A1 (Harvard, published 2007)
